Molecular target: T1, wildtype (WT) human interleukin-1β (Homo sapiens, UniProt P01584)
T1 construct: human interleukin-1β (hIL-1β); pET28a vector; also called WT hIL-1β; hIL-1β; source: E. coli BL21 (DE3), purified (Ni-NTA, Superdex 75 SEC)
Experiment: ELISA; antigen (100 ng) coated on the plate; scFv-mFc added in 3% skim milk in DPBST, 2 h at 37 °C; EC50
Conditions: both partners purified

- binding result: binds
B1: CL-E2-mFc (Fc fusion, mouse)
VH: EVQLKESGAELMKPGASVKISCKATGYTFSSYWIEWVKQRPGHGLEWIGEILPGSGSTNYNEKFKGKATFTADISSNTAYMQLSSLTSEDSAVYYCASGGYRPSMDFWGQGTSVTVSS
VL: DIVMTQSQKFMSTSVGDRVSITCKASQNVRTAVAWYQQKPGQSPKALIYLASNRHTGVPDRFTGSGSGTDFTLTITNVQSEDLADYFCLQHWNYPLTFGAGTKLELK
notes: as the scFv of m23; also called CL-E2-mFc fusion antibody; source: HEK 293F, transfected, purified (Protein A, Superdex 200 SEC)
